Columns and labels:
[1] = target: T1, EGFP-hCXCR4 (human, UniProt P61073 1-352); assay: competition with 100 nM CXCL12-TR on HEK293 cells expressing EGFP-hCXCR4, FRET
Method: (§1) The CXCR4 receptor is stably transfected in Human Embryonic Kidney (HEK) cells as a fusion protein with the EGFP fluorescent protein fused to the extracellular amino-terminal part of the receptor (EGFP-CXCR4). The human chemokines CXCL12 and CXCL12-TexasRed were synthesized as described (Amara et al., 1999, JBC 274:23916-23925; Valenzuela-Fernandez, et al., 2001, JBC 276:26550-26558). Real-time fluorescence monitoring of ligand-receptor interactions was performed as followed: HEK293 cells expressing the fusion receptor, EGFP-hCXCR4, were harvested in phosphate-buffered saline supplemented with 5 mM EDTA, pH 7.4, centrifuged and resuspended in HEPES-bovine serum albumin buffer (10 mM HEPES, 137.5 mM NaCl, 1.25 mM MgCl2, 1.25 mM CaCl2, 6 mM KCl, 10 mM glucose, 0.4 mM NaH2PO4, 1% bovine serum albumin (w/v), pH 7.4) supplemented with protease inhibitors (40 μg/mL bestatin and bacitracin, 20 μg/mL phosphoramidon, 50 μg/mL chymostatin, and 1 μg/mL leupeptin). […] Time-based recordings of the fluorescence emitted at 510 nm (excitation at 470 nm) were performed at 21° C. using a spectrofluorimeter (fluorolog 2, Spex) and sampled every 0.3 s. Fluorescence binding measurements were initiated by adding at 30 seconds 100 nM of CXCL12-TR to 1 mL cell suspension. […] Then, CXCL12-TR (100 nM) was added and fluorescence was recorded until equilibrium was reached (300 sec). […]

[2] = target: CXCR4 (UniProt P61073 1-352, limits assumed); assay: cell-based or functional assay
[3] = target: T1, EGFP-hCXCR4; assay: competition with CXCL12-Tr on CXCR4 expressing HEK293 cells, FRET
Method: as §1

T1 sequence (P61073 whole entry, the tested form may be a part): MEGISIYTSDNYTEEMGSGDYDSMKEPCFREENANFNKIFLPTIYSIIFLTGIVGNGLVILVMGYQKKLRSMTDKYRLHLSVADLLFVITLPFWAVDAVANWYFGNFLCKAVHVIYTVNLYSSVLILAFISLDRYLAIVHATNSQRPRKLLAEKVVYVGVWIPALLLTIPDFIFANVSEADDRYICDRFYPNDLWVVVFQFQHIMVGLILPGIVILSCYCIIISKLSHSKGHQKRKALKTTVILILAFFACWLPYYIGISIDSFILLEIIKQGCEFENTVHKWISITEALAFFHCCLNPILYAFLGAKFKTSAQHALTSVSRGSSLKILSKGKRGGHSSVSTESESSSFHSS

Row | Binder | EC50 [1] [µM] | Ki [1] [µM] | IC50, HIV-1 NL4-3 infection of TZM-bl cells (fraction 31 from hemofiltrate) [2] [µg/mL] | IC50, X4 tropic HIV-1 and HIV-2 infection of TZM-bl cells [2] [µM] | mean IC50, infection of TZM-bl cells by X4-tropic HIV-1 variants [2] [µg/mL] | Kd [3] [µM]
1 | LVRYTKKVPQVSTPTL (also called Human circulating antiviral albumin fragment; wild type peptide) [ALB408-423] | 8 | 3 | 21.4 | 10 to 20 | 24.2 | 
2 | LVRYTK (Synthetic fragment of human serum albumin) [ALB408-413] |  |  |  |  |  | > 200

Reference: patent publication US20130029902A1 (PHARIS BIOTECH, published 2013)
